Reference: the PETadex activity labels (doi:10.1073/pnas.2006753117)
Residue numbers refer to the chain shown, from its start.

B1: unnamed (protein)
chain: MQTTVTTMLLASVALAACAGGGSTPLPLPQQQPPQQEPPPPPVPLASRAACEALKDGNGDMVWPNAATVVEVAAWRDAAPATASAAALPEHCEVSGAIAKRTGIDGYPYEIKFRLRMPAEWNGRFFMEGGSGTNGSLSAATGSIGGGQIASALSRNFATIATDGGHDNAVNDNPDALGTVAFGLDPQARLDMGYNSYDQVTQAGKAAVARFYGRAADKSYFIGWSEGGREGMMLSQRFPSHYDGIVAGAPWDSSTNFDLAAFRDRGGKMILYHGMSDAAFSALDTADYYERLGAAMPGAAGFARLFLVPGMNHSSGGPGTDRFDMLTPLVAWVERGEAPDQISAWSGTPGYFGVAARTRPLCPYPQIARYKGSGDINTEANFACAAPP
B2: unnamed (protein)
chain: B1 chain with W224C, S314C
B3: unnamed (protein)
chain: B1 chain with W224H, S314F
B4: unnamed (protein)
chain: MFVRNADRAKNCMRAPLRVFPLKDTFSAQCANVSVWITSSVPPLRERHMDRRVTRRDLMQTRILLMLIAATGVAACGGDGGSTPAAQNPPLPLASRAACEAFQGNSNSIAWPHRATVVEVATWHEAEPANATAAATPEHCEISGAIARRTGIDGYPYEIKFRLRMPSEWNGRFFMEGGGGTNGSLSAATGSLGGGQTASALSRNFATIATDGGHDNAVNNNPDALGTVAFGMDPQARIDMGYNSYDQVTQAGKAAVAQFYGRAPDKSYFIGCSEGGREGMMLSQRFPSHYDGIVAGAPGYQLPKAGISGAWTTQSLAPAAVGVDAQNVPLINKAFSDVDLHLLSRGILGTCDALDGLSDGIVNDFRACQAAFDPATALNPDTSQPLQCTGAKTPDCLSAAQVTGIKRAMGGPVDSAGAALYNRWAWDPGMSGLNGTSYNQGWRSWWLGSYASSTNNAQRVNGFSARSWLVDFATPPEPMPVTQVAARMMNFNFDTDPPKIRATSGPFTPSSMEWHGATSTNLAAFRDRGGKLMLYHGMSDAAFSALDTADYYERLGAAMPGAAGFARLFLVPGMNHCSGGPGTDRFDMLTPLVAWVERDKAPDQVSAWAGTPGYFGATARTRPLCPYPQIARYKGSGDINAEASFVCVAP
B5: unnamed (protein)
chain: MNFPRASRLMQAAVLGGLMAVSAAATAQTNPYARGPNPTAASLEASAGPFTVRSFTVSRPSGYGAGTVYYPTNAGGTVGAIAIVPGYTARQSSIKWWGPRLASHGFVVITIDTNSTLDQPSSRSSQQMAALRQVASLNGTSSSPIYGKVDTARMGVMGWSMGGGGSLISAANNPSLKAAAPQAPGYQLPKAGISGAWTTQSLAPAAVGLDAQGVPLINKSFSDADLHLLSQAILGTCDALDGLADGIVDNYRACQAAFDPATAANPANGQALQCVGAKTADCLSPVQVTAIKRAMAGPVNSAGTPLYNRWAWDAGMSGLSGTTYNQGWRSWWLGSFNSSANNAQRVSGFSARSWLVDFATPPEPMPMTQVAARMMKFDFDIDPLKIWATSGQFTQSSMDWHGATSTSSVTVPTLIFACENDSIAPVNSSALPIYDSMSRNAKQFLEINGGSHSCANSGNSNQALIGKKGVAWMKRFMDNDTRYSTFACENPNSTRVSDFRTANCS
B6: unnamed (protein)
chain: MQTTVTTMLLASVALAACAGGGSTPLPLPQQQPPQQEPPPPPVPLASRAACEALKDGNGDMVWPNAATVVEVAAYVPAGVNISMADNPSICGGDEDPITSTFAFCEVSGAIAKRTGIDGYPYEIKFRLRMPAEWNGRFFMEGGSGTNGCLSAATGSIGGGQIASALSRNFATIATDGGHDNAVNDNPDALGTVAFGLDPQARLDMGYNSYDQVTQAGKAAVARFYGRAADKSYFIGCSEGGREGMMLSQRFPSHYDGIVAGAPGYQLPKAGISGAWTTQSLAPAAVGLDAQGVPLINKSFSDADLHLLSQAILGTCDALDGLADGIVDNYRACQAAFDPATAANPANGQALQCVGAKTADCLSPVQVTAIKRAMAGPVNSAGTPLYNRWAWDAGMSGLSGTTYNQGWRSWWLGSFNSSANNAQRVSGFSARSWLVDFATPPEPMPMTQVAARMMKFDFDIDPLKIWATSGQFTQSSMDWHGATSTDLAAFRDRGGKMILYHCMSDAAFSALDTADYYERLGAAMPGAAGFARLFLVPGMNHCCGGPGTDRFDMLTPLVAWVERGEAPDQISAWSGTPGYFGVAARTRPLCPYPQIARYKGSGDINTEANFACAAPP
B7: unnamed (protein)
chain: MQTTVTTMLLASVALAACAGGGSTPLPLPQQQPPQQEPPPPPVPLASRAACEALKDGNGDMVWPNAATVVEVAAWRDAAPATASAAALPEHCEVSGAIAKRTGIDGYPYEIKFRLRMPAEWNGRFFMEGGGGTNGSLSAATGSIGGGQIASALSRNFATIATDGGHDNAVNDNPDALGTVAFGLDPQARLDMGYNSYDQVTQAGKAAVARFYGRAADKSYFIGCSEGGREGMMLSQRFPSHYDGIVAGAPGYQLPKAGISGAWTTQSLAPAAVGLDAQGVPLINKSFSDADLHLLSQAILGTCDALDGLADGIVDNYRACQAAFDPATAANPANGQALQCVGAKTADCLSPVQVTAIKRAMAGPVNSAGTPLYNRWAWDAGMSGLSGTTYNQGWRSWWLGSFNSSANNAQRVSGFSARSWLVDFATPPEPMPMTQVAARMMKFDFDIDPLKIWATSGQFTQSSMDWHGATSTDLAAFRDRGGKMILYHGMSDAAFSALDTADYYERLGAAMPGAAGFARLFLVPGMNHCSGGPGTDRFDMLTPLVAWVERGEAPDQISAWSGTPGYFGVAARTRPLCPYPQIARYKGSGDINTEANFACAAPP
B8: unnamed (protein)
chain: B7 chain with G131S, F495I
B9: unnamed (protein)
chain: B7 chain with G131S, E226T
B10: unnamed (protein)
chain: B7 chain with G131S, S225A

Substrate: MHET
Assay: Proxy for plastic degradation [kcat] (s⁻¹)
Details: pH 7.5

| Protein | Proxy for plastic degradation |
| --- | --- |
| B1 | 0.1 |
| B2 | 0.05 |
| B3 | 0.06 |
| B4 | 9.5 |
| B5 | 0.11 |
| B6 | 0.16 |
| B7 | 11 |
| B8 | 1.3 |
| B9 | 14 |
| B10 | 0 |
